No end group written: not given here.
What was measured:
[1] = system: mouse C127 cells; assay: FRAP, nuclear mobility of GFP fusion proteins; assay type: cell-based; conditions: compared to wild-type GFP-CFP1
Description: FRAP experiments were performed on an UltraView spinning disk microscope (Perkin Elmer) equipped with an EM-CCD camera (Hamamatsu) using a 60x/1.4NA oil objective. 50 pre-bleach and 1,000 post-bleach images were captured at a rate of 8 frames per second (fps) (Figures 1B and C) after bleaching a circular diffraction limited spot of ∼2.5 μm diameter using a 488-nm laser line at 100% transmission. Alternatively, to capture the rapid recovery of the P/C/S^∗ mutant effectively, we used an acquisition rate of 13 fps (Figures 1E and F). FRAP curves were calculated in MATLAB, normalizing for the initial conditions (brightness of the cell and brightness of the spot) and corrected for acquisition photobleaching over time ([Mueller et al., 2012]). Half recovery times (t1/2) were calculated using a biexponential fit. Briefly, this involved deriving t1/2 values from individual cells (Figures S1F and S1G) and then collecting the distribution of t1/2 values across biological triplicates for the same transgene (Figures S1H and S1I). To compare the dynamics of individual GFP-CFP1 transgenes, a Student’s t test was then used to calculate the probability (p) that there was no difference between the wild-type and mutant versions of CFP1.
Supplementary Experimental Procedures: […]
Fluorescence recovery after photobleaching (FRAP) […]

[2] = molecular target: CFP1 PHD domain; assay: NMR titration; 1H,15N HSQC of 0.1-0.2 mM uniformly 15N-labelled CFP1 PHD finger; histone tail peptides added stepwise; 20 mM Tris-HCl pH 6.8, 100 mM NaCl, 2.5 mM DTT, 7% D2O; 298 K
[3] = molecular target: CFP1 PHD domain; assay: other fluorescence titration; intrinsic fluorescence of the CFP1 PHD finger, excitation 280 nm, emission 320-380 nm; increasing concentrations of histone peptide; 20 mM Tris-HCl pH 6.8, 100 mM NaCl, 2.5 mM DTT; 25°C

| Molecule | Kd [3] | other results |
| --- | --- | --- |
| GFP-SET1A: GFP-tagged wild-type SET1A | – | Nuclear mobility (FRAP) [1]: slightly less mobile than GFP-CFP1 |
| ARTKQTARKSTG (here or on the partner: zinc-bound PHD finger; 15N-labelled for NMR. Construct limits are not in the text shown, so the UniProt PHD-type zinc finger limits are used; human is inferred from the NP_001095124.1 alignment and th) [unmodified H3K4me0 peptide] | – | Kd [2]: 373 µM |
| ARTK(trimethyl)QTARKSTG [H3K4me3 peptide] | 1.3 µM | – |
| ARTK(dimethyl)QTARKSTG [H3K4me2 peptide] | 9.1 µM | – |
| ARTK(Me)QTARKSTG [H3K4me1 peptide] | 64 µM | – |
